Measurements taken from paper PMC6887587.

Key:
[1] = molecular target: FHR4/VHH(T) trifunctional heteromultimer, Clone 2E3 (first single-cell sorting) (human) (UniProt P04003); experiment: SPR; Biacore 3000, CM5 chip; 10 000 RU of purified multimer immobilised by amine coupling; C3b 2.5, 5, 10 and 20 µg/mL injected in HBS-EP (10 mM Hepes pH 7.4, 150 mM NaCl, 3 mM EDTA, 0.05% P20) with 20 mM MgCl2, 5 min at 30 µL/min, 5 min dissociation; 1:1 Langmuir fit
[2] = molecular target: FHR4/VHH(T) trifunctional heteromultimer, Clone IA3 (third single-cell sorting) (human); experiment: as above

Chain of UniProt P04003 (P04003 whole entry, looked up, one chain of several): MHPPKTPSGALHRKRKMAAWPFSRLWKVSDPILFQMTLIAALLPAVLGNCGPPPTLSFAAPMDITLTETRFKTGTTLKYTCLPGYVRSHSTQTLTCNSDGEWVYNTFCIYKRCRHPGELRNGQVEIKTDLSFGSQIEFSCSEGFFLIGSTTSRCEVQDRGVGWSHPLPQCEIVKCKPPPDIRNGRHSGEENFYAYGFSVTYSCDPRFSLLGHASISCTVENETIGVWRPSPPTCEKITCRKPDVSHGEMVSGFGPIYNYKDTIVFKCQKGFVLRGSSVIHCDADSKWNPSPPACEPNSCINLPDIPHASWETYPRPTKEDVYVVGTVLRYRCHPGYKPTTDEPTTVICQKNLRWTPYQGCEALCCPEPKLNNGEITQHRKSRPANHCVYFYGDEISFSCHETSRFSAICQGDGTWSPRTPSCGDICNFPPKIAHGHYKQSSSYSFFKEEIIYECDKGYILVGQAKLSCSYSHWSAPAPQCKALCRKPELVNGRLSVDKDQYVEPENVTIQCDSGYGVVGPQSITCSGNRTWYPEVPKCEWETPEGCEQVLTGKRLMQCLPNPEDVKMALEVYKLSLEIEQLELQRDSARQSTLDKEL

Ka [1]: 3.65e+06 M⁻¹
Kd [1]: 274 nM
final C3b binding (RU) [1]: 58 RU
maximum C3b binding at 20 µg/mL C3b (RU) [1]: 100 RU
Ka [2]: 4.48e+06 M⁻¹
Kd [2]: 223 nM
final C3b binding (RU) [2]: 78.6 RU
maximum C3b binding at 20 µg/mL C3b (RU) [2]: 136 RU
Substance: C3b (from UniProt P01024 749-1663; P01024 749-1663) (natural protein)
